{"source": "paper PMC9534812", "about": "“Hetero-pentamerization determines mobility and conductance of Glycine receptor α3 splice variants” (Cellular and Molecular Life Sciences, 2022)", "binders": {"B1": {"name": "GlyR-α3L-eGFP (glycine receptor α3 subunit, long splice variant L, N-terminally tagged with eGFP) (receptor, mouse, UniProt Q91XP5 34-464, looked up)", "chain": "ARSRSAPMSPSDFLDKLMGRTSGYDARIRPNFKGPPVNVTCNIFINSFGSIAETTMDYRVNIFLRQKWNDPRLAYSEYPDDSLDLDPSMLDSIWKPDLFFANEKGANFHEVTTDNKLLRIFKNGNVLYSIRLTLTLSCPMDLKNFPMDVQTCIMQLESFGYTMNDLIFEWQDEAPVQVAEGLTLPQFLLKEEKDLRYCTKHYNTGKFTCIEVRFHLERQMGYYLIQMYIPSLLIVILSWVSFWINMDAAPARVALGITTVLTMTTQSSGSRASLPKVSYVKAIDIWMAVCLLFVFSALLEYAAVNFVSRQHKELLRFRRKRKNKTEAFALEKFYRFSDTDDEVRESRFSFTAYGMGPCLQAKDGVVPKGPNHAVQVMPKSPDEMRKVFIDRAKKIDTISRACFPLAFLIFNIFYWVIYKILRHEDIHQQQD", "notes": "Glycine receptor subunit alpha-3, mouse, splice variant L (464 residues); The receptor assembles as a pentamer; the molecule here is the subunit; also called L variant; GlyR-α3L-FP; source: HEK293, transiently transfected (calcium phosphate; truncated CMV promoter), in the membrane of live or fixed cells; not shown: eGFP, N-terminal, kept"}}, "key": {"[1]": {"target": "the molecule itself", "assay": "molecular brightness from raster image correlation spectroscopy (RICS); live HEK293 cells, confocal, 37 °C, bottom membrane; clusters masked out by intensity thresholding; brightness of eGFP compared with eGFP5 and Lyn-eGFP references"}, "[2]": {"target": "GlyR-α3K-mCherry (glycine receptor α3 subunit, short splice variant K, N-terminally tagged with mCherry) (mouse)", "assay": "subunit counting by stepwise photobleaching (TIRF microscopy); fixed HEK293 cells with low copy number expression (50 ng GlyR-α3L-eGFP, 0-500 ng GlyR-α3K-mCherry); eGFP bleaching steps per diffraction-limited spot, step histogram fitted with binomial models; room temperature"}}, "data": [{"binder": "B1", "values": [{"measurement": "stoichiometry N", "setting": "[1]", "result": 5}, {"measurement": "heteropentameric fraction (2nd order binomial fit)", "setting": "[2]", "result": 23, "unit": "%"}, {"measurement": "heteropentameric fraction (3rd order binomial fit)", "setting": "[2]", "result": 36, "unit": "%"}, {"measurement": "heteropentameric fraction (4th order binomial fit)", "setting": "[2]", "result": 67, "unit": "%"}]}]}
